Measurements published in patent US20100247549A1 (US Dept. of Health and Human Services, published 2010).

What was measured:
human Fcγ R IIIB = human Fcγ R IIIB (human, UniProt O75015 17-200); assay: ELISA, IgG titrated against human Fcγ R IIIB
human Fcγ R I = human Fcγ R I (human, UniProt P12314 16-288); assay: ELISA, IgG titrated against human Fcγ R I
purified human C1q = purified human C1q (human, UniProt P02745 23-245; P02746 28-253; P02747 29-245); assay: ELISA, IgG titrated against purified human C1q
Sequence of purified human C1q (P02745 23-245 limits assumed, chain 1 of 3): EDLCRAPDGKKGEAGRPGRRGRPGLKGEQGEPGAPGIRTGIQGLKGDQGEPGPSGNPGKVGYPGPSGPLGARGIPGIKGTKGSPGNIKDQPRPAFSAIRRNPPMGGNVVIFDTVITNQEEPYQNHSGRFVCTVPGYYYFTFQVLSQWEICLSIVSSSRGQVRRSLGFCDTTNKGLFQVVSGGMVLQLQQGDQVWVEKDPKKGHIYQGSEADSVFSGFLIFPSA
Sequence of purified human C1q (P02746 28-253 limits assumed, chain 2 of 3): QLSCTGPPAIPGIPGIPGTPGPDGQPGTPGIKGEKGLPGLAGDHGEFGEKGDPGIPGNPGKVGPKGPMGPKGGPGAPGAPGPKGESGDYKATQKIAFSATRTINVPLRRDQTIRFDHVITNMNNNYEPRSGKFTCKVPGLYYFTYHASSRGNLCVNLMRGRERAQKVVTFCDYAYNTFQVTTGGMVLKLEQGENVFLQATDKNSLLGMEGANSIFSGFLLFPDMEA
Sequence of purified human C1q (P02747 29-245 limits assumed, chain 3 of 3): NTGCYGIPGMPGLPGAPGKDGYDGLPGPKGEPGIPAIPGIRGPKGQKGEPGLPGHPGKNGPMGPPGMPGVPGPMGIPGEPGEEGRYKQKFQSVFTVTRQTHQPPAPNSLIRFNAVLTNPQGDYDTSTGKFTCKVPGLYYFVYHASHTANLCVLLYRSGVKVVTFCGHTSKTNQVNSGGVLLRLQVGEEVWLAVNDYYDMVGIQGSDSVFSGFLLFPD

human Fcγ R IIB = target: T1, human Fcγ R IIB (human, UniProt P31994 46-217); assay: ELISA, IgG titrated against human Fcγ R IIB
T1 sequence: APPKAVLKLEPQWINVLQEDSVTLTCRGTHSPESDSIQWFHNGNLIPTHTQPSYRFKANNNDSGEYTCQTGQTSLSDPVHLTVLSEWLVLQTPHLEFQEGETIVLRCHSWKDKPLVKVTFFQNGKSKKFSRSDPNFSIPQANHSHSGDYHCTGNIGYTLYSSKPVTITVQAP

[1] = target: Envelope glycoprotein (E) of parental DENV-4 (C6/36) (dengue virus type 4, UniProt P09866 280-774)
Sequence of Envelope glycoprotein (E) of parental DENV-4 (C6/36) (P09866 280-774 limits assumed): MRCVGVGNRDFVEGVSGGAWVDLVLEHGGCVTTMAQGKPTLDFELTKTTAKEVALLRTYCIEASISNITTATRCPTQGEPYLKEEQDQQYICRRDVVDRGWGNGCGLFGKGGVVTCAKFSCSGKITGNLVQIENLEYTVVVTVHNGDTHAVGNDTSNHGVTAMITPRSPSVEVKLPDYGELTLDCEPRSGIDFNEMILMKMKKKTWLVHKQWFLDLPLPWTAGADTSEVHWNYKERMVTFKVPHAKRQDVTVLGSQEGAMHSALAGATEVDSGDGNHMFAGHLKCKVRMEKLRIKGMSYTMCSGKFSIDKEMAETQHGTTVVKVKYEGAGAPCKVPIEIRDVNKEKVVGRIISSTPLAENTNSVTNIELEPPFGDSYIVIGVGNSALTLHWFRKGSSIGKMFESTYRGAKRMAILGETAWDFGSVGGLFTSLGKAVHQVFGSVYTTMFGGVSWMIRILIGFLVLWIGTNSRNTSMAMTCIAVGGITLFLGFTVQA

Sequence of human Fcγ R I (P12314 16-288 limits assumed): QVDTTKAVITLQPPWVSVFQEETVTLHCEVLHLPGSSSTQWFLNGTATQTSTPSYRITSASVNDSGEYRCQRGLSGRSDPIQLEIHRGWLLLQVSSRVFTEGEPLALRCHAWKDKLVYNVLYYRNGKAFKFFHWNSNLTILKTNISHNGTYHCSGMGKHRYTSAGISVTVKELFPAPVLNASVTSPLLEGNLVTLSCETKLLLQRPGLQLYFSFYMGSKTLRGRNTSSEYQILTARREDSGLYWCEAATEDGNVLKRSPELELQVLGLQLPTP
Sequence of human Fcγ R IIIB (O75015 17-200 limits assumed): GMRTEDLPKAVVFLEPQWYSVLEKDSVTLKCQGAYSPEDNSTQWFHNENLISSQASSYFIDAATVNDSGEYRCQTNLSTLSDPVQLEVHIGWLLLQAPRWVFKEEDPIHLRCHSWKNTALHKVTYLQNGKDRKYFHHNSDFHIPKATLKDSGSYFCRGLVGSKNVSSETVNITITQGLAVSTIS

Binder | binding result (human Fcγ R IIIB) | EC50 (read off the curve) (human Fcγ R I) [µg/mL] | binding result (purified human C1q) | binding result (human Fcγ R IIB) | Kd [1] [nM]
Humanized IgG 1A5 (IgG1), full-length (antibody, also called IgG 1A5 WT; MAb IgG 1A5; copies: 2 + 2) heavy: not shown light: ELQMTQSPSSVSASVGDTVTIACRASQSITNYLSWYQQKPGKAPKLLIYHASTLQSGIPSRFSGSGSGTDFTLTISSLQPDDFATYYCHYGYGTHTFGQGTKLEIKRTVAAPSVFIFPPSDEQLKSGTASVVCLLNNFYPREAKVQWKVDNALQSGNSQESVTEQDSKDNTYSLSSTLTLSKADYEKHKVYACEVTHQGLSSPVTKSFN | binds | ~0.7 | binds | binds | –
IgG 1A5 ΔA (replacement amino acids at 327, 330 and 331 from the Fc of IgG4) (antibody) chain 1: EVQLLESGGGLVQPGGSRRLSCAASGFTISDNVMHWVRQAPGKGLEWVALIYSADTTHYADSVKGRFTISRDNSKNTLYLQMDSLRPEDTAVYYCAREYCTGDTCFAHFDYWGQGTLVSVSSASTKGPSVFPLAPSSKSTSGGTAALGCLVKDYFPEPVTVSWNSGALTSGVHTFPAVLQSSGLYSLSSVVTVPSSSLGTQTYICNVDHKPSNTKVDKKVEPKSCDKTHTCPPCPAPELLGGPSVFLFPPKPKDTLMISRTPEVTCVVVDVSHEDPEVKFNWYVDGVEVHNAKTKPREEQYNSTYRVVSVLTVLHQDWLNGKEYKCKVSNKGLPSSIEKTISKAKGQPREPQVYTLPPSRDELTKNQVSLTCLVKGFYPSDIAVEWESNGQPENNYKTTPPVLDSDGSFFLYSKLTVDKSRWQQGNVFSCSVMHEALHNHYTQKSLSLSPGK chain 2: ELQMTQSPSSVSASVGDTVTIACRASQSITNYLSWYQQKPGKAPKLLIYHASTLQSGIPSRFSGSGSGTDFTLTISSLQPDDFATYYCHYGYGTHTFGQGTKLEIKRTVAAPSVFIFPPSDEQLKSGTASVVCLLNNFYPREAKVQWKVDNALQSGNSQESVTEQDSKDNTYSLSSTLTLSKADYEKHKVYACEVTHQGLSSPVTKSFN | – | ~3 | – | – | –
IgG 1A5 ΔD (IgG 1A5 with the 9-amino-acid deletion, amino acids 231-239, in the CH2 domain) (antibody, also called variant ΔD; copies: 2 + 2) heavy: EVQLLESGGGLVQPGGSRRLSCAASGFTISDNVMHWVRQAPGKGLEWVALIYSADTTHYADSVKGRFTISRDNSKNTLYLQMDSLRPEDTAVYYCAREYCTGDTCFAHFDYWGQGTLVSVSSASTKGPSVFPLAPSSKSTSGGTAALGCLVKDYFPEPVTVSWNSGALTSGVHTFPAVLQSSGLYSLSSVVTVPSSSLGTQTYICNVDHKPSNTKVDKKVEPKSCDKTHTCPPCPVFLFPPKPKDTLMISRTPEVTCVVVDVSHEDPEVKFNWYVDGVEVHNAKTKPREEQYNSTYRVVSVLTVLHQDWLNGKEYKCKVSNKALPAPIEKTISKAKGQPREPQVYTLPPSRDELTKNQVSLTCLVKGFYPSDIAVEWESNGQPENNYKTTPPVLDSDGSFFLYSKLTVDKSRWQQGNVFSCSVMHEALHNHYTQKSLSLSPGK light: ELQMTQSPSSVSASVGDTVTIACRASQSITNYLSWYQQKPGKAPKLLIYHASTLQSGIPSRFSGSGSGTDFTLTISSLQPDDFATYYCHYGYGTHTFGQGTKLEIKRTVAAPSVFIFPPSDEQLKSGTASVVCLLNNFYPREAKVQWKVDNALQSGNSQESVTEQDSKDNTYSLSSTLTLSKADYEKHKVYACEVTHQGLSSPVTKSFN | – | – | no binding | – | –
Humanized IgG 5H2 ΔD (IgG1 5H2 with a 9-amino-acid deletion, positions 231-239, at the N-terminus of the CH2 domain) (antibody, also called IgG1 5H2 ΔD; IgG 5H2D; copies: 2 + 2) heavy: EVQLLESGPGLVKPSETLSLTCTVSGGSISDFYWSWLRQSPGKGLEWIGYAHSRVSAYYNPSLKSRVTISVDTSKNQLSLRLSAVTAADTALYYCARQGTGTTGVSEDFFDLWGQGTKVIVSLASTKGPSVFPLAPSSKSTSGGTAALGCLVKDYFPEPVTVSWNSGALTSGVHTFPAVLQSSGLYSLSSVVTVPSSSLGTQTYICNVDHKPSNTKVDKKVEPKSCDKTHTCPPCPVFLFPPKPKDTLMISRTPEVTCVVVDVSHEDPEVKFNWYVDGVEVHNAKTKPREEQYNSTYRVVSVLTVLHQDWLNGKEYKCKVSNKALPAPIEKTISKAKGQPREPQVYTLPPSRDELTKNQVSLTCLVKGFYPSDIAVEWESNGQPENNYKTTPPVLDSDGSFFLYSKLTVDKSRWQQGNVFSCSVMHEALHNHYTQKSLSLSPGK light: not shown | – | – | no binding | – | 0.14
Chimpanzee antibody Fab 5H2 (Fab, V domains shown) VH: EVQLLESGPGLVKPSETLSLTCTVSGGSISDFYWSWLRQSPGKGLEWIGYAHSRVSAYYNPSLKSRVTISVDTSKNQLSLRLSAVTAADTALYYCARQGTGTTGVSEDPFDLWGQGTKVIVSL VL: ELQMTQSPSSLSASVGDRVTITCRASQDISIRLNWYQQKPGKAPKLLIYDASTLESGVPSRFSGSGSGTDFTLTISSLQPEDFATYYCQQFNSYPLTFGGGTKVEIKR | – | – | – | – | 0.21
